Fold lower level of Dss1 in the DNA-bound fraction than with Brh2Δ362–493::OB-AB data for one substance are collected here from paper PMC3617921.

For the assay, the target named is MBP-Brh2 (U. maydis). Nature of the assay: pull-down.

“hexahistidine (His)-tagged Dss1 (natural protein)” had a fold lower level of Dss1 in the DNA-bound fraction than with Brh2Δ362–493::OB-AB above 20 fold.
